According to paper PMC6422423, “Constitutively active BRS3 is a genuinely orphan GPCR in placental mammals” (PLoS Biology, 2019):

How the values were obtained:
[1] = target: chicken bombesin receptor subtype-3 (chicken (Gallus gallus)); test: radioligand binding; displacement of 50 pM [125I]-Tyr42-GRP by unlabeled peptide on disaggregated transfected HEK293 cells; 1 h at 21°C; 24.5 mM HEPES pH 7.4, 98 mM NaCl; bound tracer separated by centrifugation
[2] = target: spotted gar bombesin receptor subtype-3 (spotted gar (Lepisosteus oculatus)); test: as above
[3] = target: turtle bombesin receptor subtype-3 (turtle (Chrysemys picta)); test: as above
[4] = target: chicken bombesin receptor subtype-3 (chicken (Gallus gallus)); test: radioligand binding; displacement of 50 pM [125I]-Tyr-NMB by unlabeled peptide on disaggregated transfected HEK293 cells; 1 h at 21°C; 24.5 mM HEPES pH 7.4, 98 mM NaCl; bound tracer separated by centrifugation
[5] = target: aardvark bombesin receptor subtype-3 (aardvark (Orycteropus afer)); test: as above
[6] = target: spotted gar bombesin receptor subtype-3 (spotted gar (Lepisosteus oculatus)); test: as above
[7] = target: turtle bombesin receptor subtype-3 (turtle (Chrysemys picta)); test: as above

Sequence of turtle bombesin receptor subtype-3 (turtle (Chrysemys picta)) (main, as listed by the source): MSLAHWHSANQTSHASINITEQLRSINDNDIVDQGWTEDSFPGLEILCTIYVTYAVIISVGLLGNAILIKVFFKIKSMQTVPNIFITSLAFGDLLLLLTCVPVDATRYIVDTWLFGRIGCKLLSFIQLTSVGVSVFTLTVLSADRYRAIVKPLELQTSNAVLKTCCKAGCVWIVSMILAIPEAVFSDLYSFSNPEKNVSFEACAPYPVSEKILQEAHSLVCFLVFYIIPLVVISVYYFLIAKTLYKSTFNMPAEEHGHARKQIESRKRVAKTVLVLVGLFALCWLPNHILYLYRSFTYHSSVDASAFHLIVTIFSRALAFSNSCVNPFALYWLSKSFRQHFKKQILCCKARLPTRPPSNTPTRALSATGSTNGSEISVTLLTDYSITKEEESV
Sequence of spotted gar bombesin receptor subtype-3 (spotted gar (Lepisosteus oculatus)) (main, as listed by the source): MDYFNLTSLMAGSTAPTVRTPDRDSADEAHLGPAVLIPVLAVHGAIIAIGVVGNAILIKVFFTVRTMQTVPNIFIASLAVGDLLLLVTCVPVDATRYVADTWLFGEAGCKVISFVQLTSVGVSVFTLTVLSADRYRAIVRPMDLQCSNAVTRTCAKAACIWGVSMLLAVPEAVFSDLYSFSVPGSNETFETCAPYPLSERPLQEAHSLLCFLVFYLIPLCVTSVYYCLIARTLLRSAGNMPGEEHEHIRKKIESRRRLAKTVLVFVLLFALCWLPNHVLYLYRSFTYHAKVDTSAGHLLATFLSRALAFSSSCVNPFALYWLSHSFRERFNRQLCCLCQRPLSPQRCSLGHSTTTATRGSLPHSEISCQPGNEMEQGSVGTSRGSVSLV
Sequence of aardvark bombesin receptor subtype-3 (aardvark (Orycteropus afer)) (P32247 other isoform, or with tags, fused parts or gaps): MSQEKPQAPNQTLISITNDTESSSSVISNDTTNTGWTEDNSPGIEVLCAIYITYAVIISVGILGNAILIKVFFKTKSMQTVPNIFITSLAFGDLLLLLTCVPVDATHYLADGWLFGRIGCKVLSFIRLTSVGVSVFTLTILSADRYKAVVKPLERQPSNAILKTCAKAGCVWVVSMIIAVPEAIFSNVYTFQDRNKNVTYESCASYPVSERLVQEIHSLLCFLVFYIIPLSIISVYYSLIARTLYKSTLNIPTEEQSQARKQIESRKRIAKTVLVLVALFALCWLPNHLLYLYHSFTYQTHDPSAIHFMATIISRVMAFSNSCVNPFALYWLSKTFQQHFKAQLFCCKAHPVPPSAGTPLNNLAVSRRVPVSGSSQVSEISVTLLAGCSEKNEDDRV

Question: What does the source list for “neuromedin B, unlabeled ligand peptide of the radioligand binding assays”?
Answer: IC50 [1]: 1.35 nM; IC50 [2]: 1.74 nM; IC50 [3]: 1.14 nM; IC50 [4]: 2.26 nM; Ki [5]: > 1000 nM; IC50 [6]: 2.65 nM; IC50 [7]: 2.82 nM
